B1: MmPNMA5 (mouse PNMA5 produced in E. coli, tags removed) (other, UniProt Q5DTT8 1-618, looked up)
chain: MAVALLDDWCKGMDLDPKKAVLIVGIPVQYTEAAINDALKEGLPPLCAYKVIGRMFRREDEAKAVLIELPEVVDYTMMPTHIPAEGGAWEVVVKPRSPDDEFMNKLIYFLRDEGRRIVDVAKALGFSTVPTGKIELKNLDQDKPKGLKSLCNNSTCYKKLKVFSGSPFPGPGEESFETWLEEVTELMQLWQVSEREKKQCLLESLRGSALSIMQALWTSNDSLTVEQCLKALKHIFGNKEDSKVLQFRFLQSSQKPAEKVSDYLLRLEPLLQKAVQQSPLSAHSADSIRLKHVLSQVSMTTGLRGKLSLLDQQGCPPTFLELMKLTRDEEEWESTVVVEEQEQVRRDSSACEAANEVVTQAEDSREVSTQTTGEEMTSVKRRRLLWRHSAGEEGQRKESGFWAESEPDEQKPYVRAQESGNERGAWAVSHPNPKEIEAQDSQEFLPVAGNRDTLTKSWGSPDKGTGDMSVAEGQQGQGKAPNFLLARNDPNKQEQIPHSSVTTKWQDRGECQRLKWGASMITRPQGNPDRSWDTSGSQDGEDGCSELRMPTGTEAAQGVEEPATGLSWAEDTSAWEQARLGRETVPRRGGRRIQPVFRIIYTALGEPHEGSTLESFRE
notes: Cloned from mouse cDNA into a TwinStrep-SUMO backbone; tags cleaved with SUMO protease before size exclusion
B2: MmPNMA3 (mouse PNMA3 produced in E. coli, tags removed) (other, UniProt Q8JZW8 1-466, looked up)
chain: MPLNLLQDWCRGEHLNTQRSMLILGIPEDCSEDEFEETLHEALKHLGRYRIIGRMFRREENAQAFLVELARDFDYALVPREIEGKGGPWEVVVKPPHSDDEFLNRLNHFLEEERRTVSDMNRVLGTHSNHSPTKTTISADFWVWAQTLGAVMQPLLEQMLYRELRVFSGNTISIPGLLAFDSWLEHTTEMLQMWQVPEVEKRRRLMECLRGPALQVVNVLRANNAAITVKECLEALRQVFGSVDNRKIAQLKFCKAYQEPGEKVSSFVVRLETLLQKALEKNAISRKNVNQTRLKRILGGAILSAKLREKLKMLKQRRRPPGFLALVKLFREEEEEWEATRGSERSCYEGLELGPSPSNIGSEERELFVPAFGSVLEERPYQGSRRRRHRRRGQHRKGGVPRDDSQGTRKQNYDTFCYSCGEDGHIRVHCFNPSNRTLVKQKRQAAMEKGNRSWAWEKSHPKPKTK
notes: as for B1
B3: MmMOAP1 (mouse MOAP1 produced in E. coli, tags removed) (other, UniProt Q9ERH6 1-352, looked up)
chain: MTLRLLEDWCRGMDMNPRKALLVAGIPPTCGVADIEEALQAGLAPLGEHRLLGRMFRRDENKNVALIGLTVETGSALVPKEIPAKGGVWRVIFKPPDTDSDFLCRLNEFLKGEGMTMGELTRVLGNRNDPLGLDPGIMIPEIRAPMLAQALNEALKPTLQYLRYKKLSVFSGRDPPGPGEEEFESWMFHTSQVMKTWQVSDVEKRRRLIESLRGPAFEIIRVLKINNPFITVAECLKTLETIFGIIDNPRALQVKYLTTYQKTDEKLSAYVLRLEPLLQKLVQKGAIEKEVVNQARLDQVIAGAVHKSVRRELGLPEGSPAPGLLQLLTLIKDKEAEEEEVLLQAELEGYCT
notes: Cloned from mouse cDNA into a TwinStrep-SUMO backbone; tags cleaved with SUMO protease before size exclusion; also called modulator of apoptosis 1; Pnma4

Biological target: the molecule itself
Assay: self-assembly of E. coli-produced protein; size exclusion and electron microscopy

Protein | binding result
B1 | binds
B2 | binds
B3 | binds
